Laboratory results taken from paper PMC8387475, “Combined intermittent fasting and ERK inhibition enhance the anti-tumor effects of chemotherapy via the GSK3β-SIRT7 axis” (Nature Communications, 2021).

Molecular target: T1, His-GSK3β (UniProt P49841 1-420)
T1 construct: GSK3β, recombinant protein of the GST pull-down; The reagents list a bought recombinant human GSK3β protein (active) (Abcam ab60863); also called recombinant His-GSK3β; source: recombinant
Experiment: pull-down; GST pull-down with recombinant GST-SIRT7 and His-GSK3β
Conditions: both partners purified

T1 sequence (P49841 whole entry): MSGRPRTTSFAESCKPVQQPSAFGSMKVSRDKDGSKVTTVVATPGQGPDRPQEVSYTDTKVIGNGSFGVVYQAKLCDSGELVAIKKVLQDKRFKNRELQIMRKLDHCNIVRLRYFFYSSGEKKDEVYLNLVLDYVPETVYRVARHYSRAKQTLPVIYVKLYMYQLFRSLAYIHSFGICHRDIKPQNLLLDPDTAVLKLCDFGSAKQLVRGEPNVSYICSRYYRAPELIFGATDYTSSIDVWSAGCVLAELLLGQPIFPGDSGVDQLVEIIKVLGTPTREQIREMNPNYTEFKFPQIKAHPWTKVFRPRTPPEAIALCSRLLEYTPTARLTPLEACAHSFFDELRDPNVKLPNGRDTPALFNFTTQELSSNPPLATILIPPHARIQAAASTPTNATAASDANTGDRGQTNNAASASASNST

binding result: binds
B1: GST-SIRT7 (natural protein, human, UniProt Q9NRC8 1-400, looked up)
chain: MAAGGLSRSERKAAERVRRLREEQQRERLRQVSRILRKAAAERSAEEGRLLAESADLVTELQGRSRRREGLKRRQEEVCDDPEELRGKVRELASAVRNAKYLVVYTGAGISTAASIPDYRGPNGVWTLLQKGRSVSAADLSEAEPTLTHMSITRLHEQKLVQHVVSQNCDGLHLRSGLPRTAISELHGNMYIEVCTSCVPNREYVRVFDVTERTALHRHQTGRTCHKCGTQLRDTIVHFGERGTLGQPLNWEAATEAASRADTILCLGSSLKVLKKYPRLWCMTKPPSRRPKLYIVNLQWTPKDDWAALKLHGKCDDVMRLLMAELGLEIPAYSRWQDPIFSLATPLRAGEEGSHSRKSLCRSREEAPPGDRGAPLSSAPILGGWFGRGCTKRTKRKKVT
notes: SIRT7 cloned into pGEX-4T-3; also called GST-SIRT7-WT; recombinant GST-SIRT7; source: E. coli BL21, purified (glutathione agarose)
